Source: paper PMC3941021 (Nature structural & molecular biology, 2013)
Read-outs that look alike come from different tables or passages of the source.

Key:
Assay in all cases: crystal structure
[1] = target: lysine-methylated EphA4 ectodomain (EphA4_(ecto)), human (human, UniProt P54764 20-547, lysine-methylated)
[2] = target: T1, EphA4 ectodomain (EphA4_(ecto)), human (human, UniProt P54764 20-547)
[3] = target: T1, EphA4 ectodomain (EphA4_(ecto)), human; remark: listed apart in the source

T1 sequence (P54764 20-547): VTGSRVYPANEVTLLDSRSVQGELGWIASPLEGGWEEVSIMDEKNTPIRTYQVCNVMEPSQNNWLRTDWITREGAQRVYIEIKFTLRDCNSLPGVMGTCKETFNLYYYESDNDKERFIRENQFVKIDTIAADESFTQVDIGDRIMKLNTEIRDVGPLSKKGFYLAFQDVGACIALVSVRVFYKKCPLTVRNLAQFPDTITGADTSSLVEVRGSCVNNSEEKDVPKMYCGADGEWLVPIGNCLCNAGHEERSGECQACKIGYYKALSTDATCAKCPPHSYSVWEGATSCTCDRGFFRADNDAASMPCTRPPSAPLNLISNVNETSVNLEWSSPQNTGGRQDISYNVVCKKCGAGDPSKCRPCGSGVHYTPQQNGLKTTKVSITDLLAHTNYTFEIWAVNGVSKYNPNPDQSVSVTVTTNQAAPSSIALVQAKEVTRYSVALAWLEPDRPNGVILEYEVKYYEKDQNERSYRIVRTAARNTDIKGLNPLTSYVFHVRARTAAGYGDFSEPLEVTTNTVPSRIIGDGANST
Chain of lysine-methylated EphA4 ectodomain (EphA4_(ecto)), human (P54764 20-547): as above

B1: ephrinA5 receptor-binding domain (RBD), human, of the lysine-methylated complex sample (domain or fragment)
chain: AVADRYAVYWNSSNPRFQRGDYHIDVCINDYLDVFCPHYEDSVPEDKTERYVLYMVNFDGYSACDHTSKGFKRWECNRPHSPNGPLKFSEKFQLFTPFSLGFEFRPGREYFYISSAIPDNGRRSCLKLKVFVRPTNSCMK
modifications: lysine-methylated (the paper calls the EphA4_(ecto)-ephrinA5 RBD complex sample lysine-methylated)
B1: binds [1].

B2: ephrinA5 receptor-binding domain (RBD), human (domain or fragment)
chain: AVADRYAVYWNSSNPRFQRGDYHIDVCINDYLDVFCPHYEDSVPEDKTERYVLYMVNFDGYSACDHTSKGFKRWECNRPHSPNGPLKFSEKFQLFTPFSLGFEFRPGREYFYISSAIPDNGRRSCLKLKVFVRPTNSCMK
B2: binds [2].

B3: ephrinB3 receptor-binding domain (RBD), human (domain or fragment)
chain: GLSLEPVYWNSANKRFQAEGGYVLYPQIGDRLDLLCPRARPPGPHSSPNYEFYKLYLVGGAQGRRCEAPPAPNLLLTCDRPDLDLRFTIKFQEYSPNLWGHEFRSHHDYYIIATSDGTREGLESLQGGVCLTRGMKVLLRVGQ
B3: binds [3].
